Non-standard residues stand in square brackets, D forms with d. No end group written: not given here. NMeY = CN[C@@H](Cc1ccc(O)cc1)C(=O)O; Nle = CCCC[C@H](N)C(=O)O; Orn = NCCC[C@H](N)C(=O)O; Abu = CC[C@H](N)C(=O)O; GABA = NCCCC(=O)O
Molecular target: T1, GHRH receptor (membrane receptors of human anterior pituitary cells) (human), Q02643
T1 chain: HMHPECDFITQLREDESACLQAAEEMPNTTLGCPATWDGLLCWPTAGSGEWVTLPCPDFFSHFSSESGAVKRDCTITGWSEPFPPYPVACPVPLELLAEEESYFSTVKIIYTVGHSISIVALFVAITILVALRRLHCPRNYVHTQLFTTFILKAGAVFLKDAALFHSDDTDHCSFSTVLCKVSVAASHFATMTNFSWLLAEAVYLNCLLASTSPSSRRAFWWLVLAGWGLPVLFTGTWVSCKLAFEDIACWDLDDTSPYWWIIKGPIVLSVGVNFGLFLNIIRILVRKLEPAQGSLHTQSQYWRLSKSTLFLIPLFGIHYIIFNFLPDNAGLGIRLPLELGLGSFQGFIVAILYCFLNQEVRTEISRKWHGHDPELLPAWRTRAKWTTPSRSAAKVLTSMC
Experiment: competition with 125I-JV-1-42, human pituitary membranes

IC50: 1.22 nM
Relative affinity (Binding potency) vs JI-38: 3.57 JI-38 = 1
B1: P-29703 [N-Me-Tyr^1, Gln^8, Orn^12, Abu^15, Orn^21, Nle^27, Gln-Gab^30]hGHRH(1-30)NH2 (peptide)
chain: [NMeY]ADAIFTQSYR[Orn]VL[Abu]QLSAR[Orn]LLQDI[Nle]SRQ[GABA]-NH2
modifications: N-terminus assumed
SMILES: CCCC[C@H](NC(=O)[C@@H](NC(=O)[C@H](CC(=O)O)NC(=O)[C@H](CCC(N)=O)NC(=O)[C@H](CC(C)C)NC(=O)[C@H](CC(C)C)NC(=O)[C@H](CCCN)NC(=O)[C@H](CCCNC(=N)N)NC(=O)[C@H](C)NC(=O)[C@H](CO)NC(=O)[C@H](CC(C)C)NC(=O)[C@H](CCC(N)=O)NC(=O)[C@H](CC)NC(=O)[C@H](CC(C)C)NC(=O)[C@@H](NC(=O)[C@H](CCCN)NC(=O)[C@H](CCCNC(=N)N)NC(=O)[C@H](Cc1ccc(O)cc1)NC(=O)[C@H](CO)NC(=O)[C@H](CCC(N)=O)NC(=O)[C@@H](NC(=O)[C@H](Cc1ccccc1)NC(=O)[C@@H](NC(=O)[C@H](C)NC(=O)[C@H](CC(=O)O)NC(=O)[C@H](C)NC(=O)[C@H](Cc1ccc(O)cc1)NC)[C@@H](C)CC)[C@@H](C)O)C(C)C)[C@@H](C)CC)C(=O)N[C@@H](CO)C(=O)N[C@@H](CCCNC(=N)N)C(=O)N[C@@H](CCC(N)=O)C(=O)NCCCC(N)=O
